From PMC11705696 come the findings set out here.

B1: AjATG4 WT probe (dsDNA)
DNA 1: TTTACGGCGCCTGTTTACGTCATCAACC
DNA 2: GGTTGATGACGTAAACAGGCGCCGTAAA
B2: AjLC3 Mut probe (dsDNA)
DNA 1: ATATCCTTTTGTGACACCTTCGGAAAG
DNA 2: CTTTCCGAAGGTGTCACAAAAGGATAT
B3: AjLC3 WT probe (dsDNA)
DNA 1: ATATCCTTTTGTCTGTTTTTCGGAAAG
DNA 2: CTTTCCGAAAAACAGACAAAAGGATAT
B4: AjATG4 Mut probe (dsDNA)
DNA 1: TTTACGGCGCGACAAAACGTCATCAACC
DNA 2: GGTTGATGACGTTTTGTCGCGCCGTAAA

This series concerns the target AjFoxO (rAjFoxO) (Apostichopus japonicus, UniProt A0A2G8KG36 1-567). As to the kind of experiment: EMSA. (Mobility shift assays separate free from complexed probe on a gel.)
Regarding B1, the binding result was “binds”.
Then B2, with “no binding”; and B3, with “binds”.
Consider B4, for which the binding result was “no binding”.
